± gives the uncertainty stated by the source.
Assay: self-splicing fitness, log relative to wild type (ln ratio); higher = more splicing; Tetrahymena group I intron in knt gene, E. coli kanamycin selection, DiMSum; sequences stand for … in CUCUCU…GGAGGGAAAAGUUAUCAGGCAUGCACCUGGUAGCUAGUCUUUAAACCAAUAGAUUGCAUCGGUUUAAAAGGCAAGACCGUCAAAUUGCGGGAAAGGGGUCAACAGCCGUUCAGUACCAAGUCUCAGGGGAAACUUUGAGAUGGCCUUGCAAAGGGUAUGGUAAUAAGCUGACGGACAUGGUCCUAACCACGCAGCCAAGUCCUAAGUCAACAGAUCUUCUGUUGAUAUGGAUGCAGUUCACAGACUAAAUGUCGGUCGGGGAAGAUGUAUUCUUCUCAUAAGAUAUAGUCGGACCUCUCCUUAAUGGGAGCUAGCGGAUGAAGUGAUGCAACACUGGAGCCGCUGGGAACUAAUUUGUAUGCGAAAGUAUAUUGAUUAGUUUUGGAGUACUCGUGGUCG
In short: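 Colonies from six replicate transformations of E. coli BL21(DE3) were pooled and amplicon-sequenced on an Illumina HiSeq 2500. The library placed an intron with all eight P1ex-region nucleotides randomised inside the knt kanamycin-resistance gene on pET-22b(+), and cells grew overnight at 37°C or 30°C on LB agar with or without 25 μg/mL kanamycin (plus 100 μg/mL carbenicillin, 50 μM IPTG, 0.2% rhamnose). Fitness is the DiMSum error-weighted combination of wild-type-normalised replicate fold changes, kanamycin versus none.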

| Sequence | self-splicing fitness (ln) (30 °C) | self-splicing fitness (ln) (37 °C) |
| --- | --- | --- |
| CGUCAGCAAUAUUACGGGAA | -3.68 ± 0.43 | -1.18 ± 0.18 |
| CGUCAGCAAUAUUACGGGCA | 0.0754 ± 0.085 | 0.572 ± 0.096 |
| CGUCAGCAAUAUUACGUACA | -0.533 ± 0.072 | 0.154 ± 0.087 |
| CGUCAGCAAUAUUACGUAGU | -2.26 ± 0.12 | -1.24 ± 0.13 |
| CGUCAGCAAUAUUACGUAUC | -3.54 ± 0.19 | -2.06 ± 0.19 |
| CGUCAGCAAUAUUACGUCUA | -0.831 ± 0.13 | -0.968 ± 0.17 |
| CGUCAGCAAUAUUACGUGUU | -3.17 ± 0.11 | -0.86 ± 0.099 |
| CGUGAGCAAUAUUACGACAC | -2.5 ± 0.27 |  |
| CGUGAGCAAUAUUACGACCU | -1.34 ± 0.28 | -1.17 ± 0.3 |
| CGUGAGCAAUAUUACGCACC | -1.07 ± 0.23 |  |
| CGUGAGCAAUAUUACGCCGA |  | -1.96 ± 0.41 |
| CGUGAGCAAUAUUACGCCGG | -2.32 ± 0.24 | -2.58 ± 0.39 |
| CGUGAGCAAUAUUACGCCGU |  | -1.1 ± 0.25 |
| CGUGAGCAAUAUUACGGAAC |  | -1.28 ± 0.44 |
| CGUGAGCAAUAUUACGGCUA | -1.68 ± 0.14 | -1.12 ± 0.14 |
| CGUGAGCAAUAUUACGGGAG | -3.67 ± 0.24 | -2.52 ± 0.19 |
| CGUGAGCAAUAUUACGGGCG | -2.93 ± 0.46 | -1.63 ± 0.43 |
| CGUGAGCAAUAUUACGGGCU | -1.5 ± 0.18 | -2.67 ± 0.39 |
| CGUGAGCAAUAUUACGGGGA | -3.34 ± 0.4 | -3.62 ± 0.42 |
| CGUGAGCAAUAUUACGGGUU | -3.99 ± 0.46 | -2.65 ± 0.29 |
| CGUGAGCAAUAUUACGUCCC |  | -1.09 ± 0.42 |
| CGUGAGCAAUAUUACGUCCU |  | -1.64 ± 0.32 |
| CGUUAGCAAUAUUACGAACU | -0.929 ± 0.075 | 0.785 ± 0.11 |
| CGUUAGCAAUAUUACGACAC | -2.43 ± 0.21 | -0.891 ± 0.19 |
| CGUUAGCAAUAUUACGACCA | -0.453 ± 0.17 | -0.925 ± 0.2 |
| CGUUAGCAAUAUUACGACGA | -1.36 ± 0.19 | -1.3 ± 0.19 |
| CGUUAGCAAUAUUACGAUGG | -0.465 ± 0.094 | -0.125 ± 0.13 |

| Sequence | self-splicing fitness (ln) (30 °C) | self-splicing fitness (ln) (37 °C) |
| --- | --- | --- |
| CGUUAGCAAUAUUACGCCAU |  | -1.61 ± 0.2 |
| CGUUAGCAAUAUUACGCCCG | -0.798 ± 0.29 |  |
| CGUUAGCAAUAUUACGCGAG | -2.42 ± 0.29 |  |
| CGUUAGCAAUAUUACGCGGA | -2.82 ± 0.47 | -1.31 ± 0.17 |
| CGUUAGCAAUAUUACGCUUC |  | -2.27 ± 0.36 |
| CGUUAGCAAUAUUACGGACA | -0.317 ± 0.08 | 0.172 ± 0.1 |
| CGUUAGCAAUAUUACGGACG | -4.39 ± 0.36 | -2.23 ± 0.25 |
| CGUUAGCAAUAUUACGGCAG | -0.122 ± 0.1 | 0.3 ± 0.12 |
| CGUUAGCAAUAUUACGGUGU | -3.37 ± 0.19 | -2.29 ± 0.17 |
| CGUUAGCAAUAUUACGUAAA | -2.88 ± 0.22 | -1.88 ± 0.26 |
| CGUUAGCAAUAUUACGUACG | -2.89 ± 0.36 | -2.09 ± 0.5 |
| CGUUAGCAAUAUUACGUCCA | -2.04 ± 0.41 | -1.13 ± 0.48 |
| CGUUAGCAAUAUUACGUCCU | -1.24 ± 0.1 | -0.9 ± 0.15 |
| CGUUAGCAAUAUUACGUGGA | -2.98 ± 0.18 | -1.68 ± 0.13 |
| CGUUAGCAAUAUUACGUUAC | -2.82 ± 0.32 | -2.83 ± 0.43 |
| CGUUAGCAAUAUUACGUUGA | -3.1 ± 0.22 | -2.25 ± 0.17 |
| CUAAAGCAAUAUUACGAACG | 0.195 ± 0.089 | 0.868 ± 0.12 |
| CUAAAGCAAUAUUACGACGA | -2.38 ± 0.13 | -0.919 ± 0.15 |
| CUAAAGCAAUAUUACGACUG | 0.0292 ± 0.098 | 0.417 ± 0.12 |
| CUAAAGCAAUAUUACGAGGC | -3.6 ± 0.16 | -1.92 ± 0.16 |
| CUAAAGCAAUAUUACGAUCA | -2.12 ± 0.18 | -0.711 ± 0.22 |
| CUAAAGCAAUAUUACGCGAC | -0.482 ± 0.14 | -0.124 ± 0.17 |
| CUAAAGCAAUAUUACGCGCA | -2.92 ± 0.23 | -1.64 ± 0.33 |
| CUAAAGCAAUAUUACGCUGA | -3.03 ± 0.18 | -2.95 ± 0.29 |
| CUAAAGCAAUAUUACGCUUA | -3.75 ± 0.37 | -2.75 ± 0.39 |
| CUAAAGCAAUAUUACGCUUU | -4.2 ± 0.33 | -2.35 ± 0.29 |
| CUAAAGCAAUAUUACGGAGG | -1.82 ± 0.1 | 0.0636 ± 0.12 |

| Sequence | self-splicing fitness (ln) (30 °C) | self-splicing fitness (ln) (37 °C) |
| --- | --- | --- |
| CUAAAGCAAUAUUACGGCAC | -2.96 ± 0.22 |  |
| CUAAAGCAAUAUUACGGCUC | -3.26 ± 0.4 |  |
| CUAAAGCAAUAUUACGGGCG | -0.0163 ± 0.069 | -0.208 ± 0.081 |
| CUAAAGCAAUAUUACGGGUU | -4.13 ± 0.28 | -3.49 ± 0.33 |
| CUAAAGCAAUAUUACGGUAU | -3.53 ± 0.16 | -2.58 ± 0.17 |
| CUAAAGCAAUAUUACGGUCA | -2.46 ± 0.18 | -1.22 ± 0.2 |
| CUAAAGCAAUAUUACGGUUU | -3.29 ± 0.2 | -2.81 ± 0.28 |
| CUAAAGCAAUAUUACGUACA | -2.52 ± 0.14 | -0.872 ± 0.18 |
| CUAAAGCAAUAUUACGUGCG | -0.674 ± 0.093 | 0.0651 ± 0.12 |
| CUAAAGCAAUAUUACGUUCG | 0.342 ± 0.064 | 0.478 ± 0.082 |
| CUAAAGCAAUAUUACGUUGC | -3.49 ± 0.18 | -2.45 ± 0.22 |
| CUACAGCAAUAUUACGAAAU | -3.72 ± 0.16 | -2.82 ± 0.17 |
| CUACAGCAAUAUUACGAGUC | -3.63 ± 0.24 | -3.18 ± 0.38 |
| CUACAGCAAUAUUACGAUAA | -3.02 ± 0.15 | -1.49 ± 0.12 |
| CUACAGCAAUAUUACGAUAG | -2.04 ± 0.12 | -1.16 ± 0.12 |
| CUACAGCAAUAUUACGAUGG | -1.44 ± 0.053 | -0.971 ± 0.077 |
| CUACAGCAAUAUUACGCGCG | -1.36 ± 0.082 | -0.796 ± 0.11 |
| CUACAGCAAUAUUACGGCCA | -3 ± 0.28 |  |
| CUACAGCAAUAUUACGGGGA | -3.52 ± 0.26 | -1.79 ± 0.16 |
| CUACAGCAAUAUUACGGGGU | -3.62 ± 0.12 | -2.34 ± 0.14 |
| CUACAGCAAUAUUACGGGUC | -4.01 ± 0.23 | -2.44 ± 0.21 |
| CUACAGCAAUAUUACGGUAC | -2.81 ± 0.13 | -1.13 ± 0.18 |
| CUACAGCAAUAUUACGUACC | -3.08 ± 0.41 | -1.72 ± 0.43 |
| CUACAGCAAUAUUACGUCGA | -3.59 ± 0.22 | -3.7 ± 0.3 |
| CUACAGCAAUAUUACGUCGG | -1.98 ± 0.066 | -0.736 ± 0.079 |
| CUACAGCAAUAUUACGUGAA | -4.26 ± 0.19 | -2.08 ± 0.17 |

— the supplement of paper PMC7877785
